The data set concerns the molecule itself. As to the kind of experiment: electron microscopy; purified dynamin 2 on lipid nanotubes, in the absence of GTP.

B1: purified recombinant wild-type human dynamin 2 (His-tagged) (enzyme, UniProt P50570-1 1-870, looked up)
chain: MGNRGMEELIPLVNKLQDAFSSIGQSCHLDLPQIAVVGGQSAGKSSVLENFVGRDFLPRGSGIVTRRPLILQLIFSKTEHAEFLHCKSKKFTDFDEVRQEIEAETDRVTGTNKGISPVPINLRVYSPHVLNLTLIDLPGITKVPVGDQPPDIEYQIKDMILQFISRESSLILAVTPANMDLANSDALKLAKEVDPQGLRTIGVITKLDLMDEGTDARDVLENKLLPLRRGYIGVVNRSQKDIEGKKDIRAALAAERKFFLSHPAYRHMADRMGTPHLQKTLNQQLTNHIRESLPALRSKLQSQLLSLEKEVEEYKNFRPDDPTRKTKALLQMVQQFGVDFEKRIEGSGDQVDTLELSGGARINRIFHERFPFELVKMEFDEKDLRREISYAIKNIHGVRTGLFTPDLAFEAIVKKQVVKLKEPCLKCVDLVIQELINTVRQCTSKLSSYPRLREETERIVTTYIREREGRTKDQILLLIDIEQSYINTNHEDFIGFANAQQRSTQLNKKRAIPNQGEILVIRRGWLTINNISLMKGGSKEYWFVLTAESLSWYKDEEEKEKKYMLPLDNLKIRDVEKGFMSNKHVFAIFNTEQRNVYKDLRQIELACDSQEDVDSWKASFLRAGVYPEKDQAENEDGAQENTFSMDPQLERQVETIRNLVDSYVAIINKSIRDLMPKTIMHLMINNTKAFIHHELLAYLYSSADQSSLMEESADQAQRRDDMLRMYHALKEALNIIGDISTSTVSTPVPPPVDDTWLQSASSHSPTPQRRPVSSIHPPGRPPAVRGPTPGPPLIPVPVGAAASFSAPPIPSRPGPQSVFANSDLFPAPPQIPSRPVRIPPGIPPGVPSRRPPAAPSRPTIIRPAEPSLLD
notes: human dynamin 2 (NM_001005360), wild type, from the same Entry clone as the mammalian constructs; The vector is named pET15b in one paragraph and pET23b in another; no removal of the His tag is told; also called Dynamin 2 WT; DNM2WT
Take B1: the binding result was “binds”.

Source of the values: paper PMC7949082, “Mutant BIN1-Dynamin 2 complexes dysregulate membrane remodeling in the pathogenesis of centronuclear myopathy” (The Journal of Biological Chemistry, 2020).
